In article doi:10.1101/456046:

Molecular target: Photosystem II subunit S (PsbS) from Physcomitrella patens (Physcomitrella patens)
Assay: SDS-PAGE

Photosystem II subunit S (PsbS) from Physcomitrella patens (natural protein)
stoichiometry N: 2
